Four molecules from article PMC5906681, “BRI1 and BAK1 interact with G proteins and regulate sugar-responsive growth and development in Arabidopsis” (Nature Communications, 2018) can be followed below.

The chains are these.
B1: MBP-AGG3 (natural protein, Arabidopsis, UniProt Q6AWT8 1-251, looked up)
chain: MSAPSGGGEGGGKESAAGGVSSSSLAPSSLPPPRPKSPPEYPDLYGKRREAARVQMLEREIGFLEGEIKFIEGVQPASRCIKEVSDFVVANSDPLIPAQRKSRRSFRFWKWLCGPCLSLVSFCCCCQSKCSCHLRKPKCCNCTSCSCIGSKCCDGSCCSNICCCPRLSCPSCSCFRGCWCSCPDMSCCIPSCFRSCSCTRPSCLNKKKSSCCSCNCKIRWSSCFSCPKVRLCSCCFCNCKNLCSNPCCLAF
notes: AGG3, Arabidopsis G protein gamma subunit 3; also called G protein gamma subunit; source: E. coli (pMAL-c2); not shown: MBP, N-terminal, kept
B2: MBP-AGG1 (natural protein, Arabidopsis, UniProt Q9FDX9 1-98, looked up)
chain: MREETVVYEQEESVSHGGGKHRILAELARVEQEVAFLEKELKEVENTDIVSTVCEELLSVIEKGPDPLLPLTNGPLNLGWDRWFEGPNGGEGCRCLIL
notes: AGG1, Arabidopsis G protein gamma subunit 1; also called G protein gamma subunit; source: E. coli (pMAL-c2); not shown: MBP, N-terminal, kept
B3: MBP-AGB1 (natural protein, Arabidopsis, UniProt P49177 1-377, looked up)
chain: MSVSELKERHAVATETVNNLRDQLRQRRLQLLDTDVARYSAAQGRTRVSFGATDLVCCRTLQGHTGKVYSLDWTPERNRIVSASQDGRLIVWNALTSQKTHAIKLPCAWVMTCAFSPNGQSVACGGLDSVCSIFSLSSTADKDGTVPVSRMLTGHRGYVSCCQYVPNEDAHLITSSGDQTCILWDVTTGLKTSVFGGEFQSGHTADVLSVSISGSNPNWFISGSCDSTARLWDTRAASRAVRTFHGHEGDVNTVKFFPDGYRFGTGSDDGTCRLYDIRTGHQLQVYQPHGDGENGPVTSIAFSVSGRLLFAGYASNNTCYVWDTLLGEVVLDLGLQQDSHRNRISCLGLSADGSALCTGSWDSNLKIWAFGGHRRVI
notes: AGB1, Arabidopsis G protein beta subunit; Cloned into the EcoR I and Pst I sites of pMAL-c2; also called G protein beta subunit; source: E. coli (pMAL-c2); not shown: MBP, N-terminal, kept
B4: MBP-AGG2 (natural protein, Arabidopsis, UniProt Q93V47 1-100, looked up)
chain: MEAGSSNSSGQLSGRVVDTRGKHRIQAELKRLEQEARFLEEELEQLEKMDNASASCKEFLDSVDSKPDPLLPETTGPVNATWDQWFEGPKEAKRCGCSIL
notes: AGG2, Arabidopsis G protein gamma subunit 2; also called G protein gamma subunit; source: E. coli (pMAL-c2); not shown: MBP, N-terminal, kept

This test deals with T1, GST-fused BRI1 kinase domain (Arabidopsis, UniProt O22476 814-1196).
T1 construct: BRASSINOSTEROID … 1 (BRI1), Arabidopsis, kinase domain, residues 814-1196; also called GST-BRI1-KD; BRI1-KD; source: E. coli (pGEX-4T-1); not shown: GST, N-terminal, kept
T1 sequence (looked up): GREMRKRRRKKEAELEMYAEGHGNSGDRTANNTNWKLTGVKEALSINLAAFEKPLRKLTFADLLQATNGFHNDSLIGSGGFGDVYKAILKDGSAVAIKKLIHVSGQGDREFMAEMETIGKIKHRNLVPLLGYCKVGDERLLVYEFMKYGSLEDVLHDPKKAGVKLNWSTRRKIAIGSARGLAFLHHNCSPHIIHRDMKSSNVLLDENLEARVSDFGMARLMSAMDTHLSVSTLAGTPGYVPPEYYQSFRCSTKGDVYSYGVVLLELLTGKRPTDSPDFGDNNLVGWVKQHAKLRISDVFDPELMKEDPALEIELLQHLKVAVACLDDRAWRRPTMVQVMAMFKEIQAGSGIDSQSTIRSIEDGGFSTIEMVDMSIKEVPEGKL
Kind of test: pull-down; about 15 μg GST fusion with about 30 μg MBP fusion in 900 μL TGH buffer (10% glycerol, 1% Triton X-100, 1.5 mM MgCl2, 150 mM NaCl, 1 mM EGTA, 50 mM HEPES, pH 7.5); 30 μL GST beads, about 1 h; immunoblot with anti-MBP and anti-GST. To be noted: both partners purified. For orientation: A western blot detects proteins with antibodies after separation by electrophoresis.
B1: the binding result was “binds”.
For the molecule B2, the binding result is “binds”.
On to B3, for which the binding result is listed as “binds”.
With B4 the entry was “binds”.
